Earlier results as cited in patent US10954506B2 (priority 2013, dated 2021).

Conditions: in vivo, iv

B1: BChE: Butyrylcholinesterase, natural stoichiometric bioscavenger found as soluble protein in human plasma (protein, UniProt P06276 29-602, looked up)
Cholinesterase: EDDIIIATKNGKVRGMNLTVFGGTVTAFLGIPYAQPPLGRLRFKKPQSLTKWSDIWNATKYANSCCQNIDQSFPGFHGSEMWNPNTDLSEDCLYLNVWIPAPKPKNATVLIWIYGGGFQTGTSSLHVYDGKFLARVERVIVVSMNYRVGALGFLALPGNPEAPGNMGLFDQQLALQWVQKNIAAFGGNPKSVTLFGESAGAASVSLHLLSPGSHSLFTRAILQSGSFNAPWAVTSLYEARNRTLNLAKLTGCSRENETEIIKCLRNKDPQEILLNEAFVVPYGTPLSVNFGPTVDGDFLTDMPDILLELGQFKKTQILVGVNKDEGTAFLVYGAPGFSKDNNSIITRKEFQEGLKIFFPGVSEFGKESILFHYTDWVDDQRPENYREALGDVVGDYNFICPALEFTKKFSEWGNNAFFYYFEHRSSKLPWPEWMGVMHGYEIEFVFGLPLERRDNYTKAEEILSRSIVKRWANFAKYGNPNETQNNSTSWPVFKSTEQKYLTLNTESTRIMTKLRAQQCRFWTSFFPKVLEMTGNIDEAEWEWKAGFHRWNNYMMDWKNQFNDYTSKKESCVGL
effective dose: about 3 mg/kg
